The target in the data set is T1, HOT1 DBD (crystal) (human, UniProt Q6NT76 233-345).
T1 sequence: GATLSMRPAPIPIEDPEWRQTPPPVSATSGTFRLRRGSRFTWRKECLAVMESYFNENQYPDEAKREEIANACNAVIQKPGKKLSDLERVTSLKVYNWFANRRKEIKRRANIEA
Put plainly: crystal structure.

B1: T1/T2 telomeric crystal duplex (dsDNA)
DNA 1: CTGTTAGGGTTAGGGTTAG
DNA 2: TCTAACCCTAACCCTAACA
B1: the binding result is reported as “binds”.
